The experiment addresses T1, recombinant human IL-25 (R&D Systems) (human, UniProt Q9H293 33-177).
T1 sequence (looked up): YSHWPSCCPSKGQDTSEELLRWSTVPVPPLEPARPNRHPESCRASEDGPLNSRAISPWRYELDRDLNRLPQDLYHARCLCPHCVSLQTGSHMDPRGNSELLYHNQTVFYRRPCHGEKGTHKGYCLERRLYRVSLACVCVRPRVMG
In words: cell-based or functional assay.

B1: hABM125.34 (antibody, V domains shown)
VH: QVTLKESGPTLVKPTQTLTLTCTFSGFSLSTSGMGVGWIRQPPGKALEWLAHIWWDDVKRYNPSLKSRLTITKDTSGSQVVLTMTNMDPVDTATYYCARTLPHFHDYWGQGTTLTVSS
VL: DIQMTQSPSTLSASVGDRVTITCRASSSVSYMYWYQQKPGKAPKPLIYRTSNLASGVPSRFSGSGSGTEYTLTISSLQPDDFATYYCKQYHSYPPTWTFGGGTKLEIKR
One may read the IC50 as the concentration at which inhibition is half-maximal. On to B1, for which the “IC50” value was 0.22 µg/mL.

B2: ABM125 (Chimera) (antibody, V domains shown)
VH: QVTLKVSGPGILQPSQTLSLTCSFSGFSLNTSGMGVGWIRQPSGKGLEWLAHIWWDDVKRYNPALKSRLTISKDTSGSQVFLKIASVDTADTATYYCARTLPHFFDYWGQGTTLTVSS
VL: DIQMTQSPAIMSASPGEKVTISCRASSSVSYMYWYQQKSGSSPKPWIYRTSNLASGVPARFSGSGSGTSYSLTISSMEAEDAATYYCKQYHSYPPTWTFGGGTKLEIKR
modifications: N-glycosylation site in heavy chain CDR1 created by S29N, confirmed biophysically
Turning to B2, the half-maximal inhibitory concentration (IC50) came to 0.18 µg/mL.

The record behind these values is patent US20240400671A1 (LANIER BIOTHERAPEUTICS, published 2024).
